# In paper PMC4869175, “Evidence that phytochrome functions as a protein kinase in plant light signalling” (Nature Communications, 2016):
# Where a chain is given by its changes, count along the chain named.
# T1: Avena sativa phytochrome A, full-length wild type (Avena sativa, UniProt P06593 1-1129, phycocyanobilin chromophore assembled (chromophore-binding site C322))
# T1 construct: Avena sativa (oat) phytochrome A, full-length gene AsPHYA; 1129 residues by the printed construct limits (66-1129aa); Used as Pr (far-red irradiated) and Pfr (red irradiated) forms; also called AsphyA; FL-AsphyA; source: phycocyanobilin added in vitro
# T1 sequence (looked up): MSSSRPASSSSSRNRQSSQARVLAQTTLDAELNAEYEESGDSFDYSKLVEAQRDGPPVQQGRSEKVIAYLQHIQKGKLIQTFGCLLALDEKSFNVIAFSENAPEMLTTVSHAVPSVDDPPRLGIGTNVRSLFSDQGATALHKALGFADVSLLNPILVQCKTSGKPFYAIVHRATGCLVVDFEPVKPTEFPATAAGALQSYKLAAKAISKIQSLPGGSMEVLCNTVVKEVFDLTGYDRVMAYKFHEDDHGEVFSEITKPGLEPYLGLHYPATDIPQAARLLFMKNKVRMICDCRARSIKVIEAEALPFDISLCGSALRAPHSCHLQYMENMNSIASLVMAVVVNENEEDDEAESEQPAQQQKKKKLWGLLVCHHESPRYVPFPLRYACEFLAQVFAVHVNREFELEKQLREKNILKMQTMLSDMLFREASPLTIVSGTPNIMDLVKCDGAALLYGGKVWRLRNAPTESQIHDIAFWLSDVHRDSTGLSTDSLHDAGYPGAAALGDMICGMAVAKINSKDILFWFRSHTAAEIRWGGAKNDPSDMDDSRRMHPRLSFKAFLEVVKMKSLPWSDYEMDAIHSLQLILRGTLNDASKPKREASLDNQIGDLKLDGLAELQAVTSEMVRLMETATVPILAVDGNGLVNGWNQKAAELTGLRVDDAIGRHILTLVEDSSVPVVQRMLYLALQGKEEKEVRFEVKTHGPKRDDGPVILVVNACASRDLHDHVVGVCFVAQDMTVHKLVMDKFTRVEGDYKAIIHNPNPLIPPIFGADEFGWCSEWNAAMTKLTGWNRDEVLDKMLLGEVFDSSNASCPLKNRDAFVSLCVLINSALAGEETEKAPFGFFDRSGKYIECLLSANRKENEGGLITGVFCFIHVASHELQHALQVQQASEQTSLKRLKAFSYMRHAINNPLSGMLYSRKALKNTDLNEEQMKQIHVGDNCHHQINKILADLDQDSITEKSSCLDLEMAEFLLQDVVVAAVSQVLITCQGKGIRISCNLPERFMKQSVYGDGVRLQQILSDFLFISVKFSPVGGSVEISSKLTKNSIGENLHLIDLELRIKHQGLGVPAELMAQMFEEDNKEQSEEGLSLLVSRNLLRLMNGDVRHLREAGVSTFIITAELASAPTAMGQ
# T2: AsphyA T418D, full length (Avena sativa, UniProt P06593 1-1129, T418D, phycocyanobilin chromophore assembled)
# T2 construct: Avena sativa phytochrome A, full length, with T418D; source: phycocyanobilin added in vitro
# T2 sequence (looked up): T1 sequence (looked up) with T418D
# B1: GST/strep-fused FHL (natural protein, UniProt A8MR65 1-201, looked up)
# chain: MDDADKSCSPSLDHSDINDPMIVAVESLDTSKKRKLHAEESDLLPLPKHFCSEHQASLVNSSCPSSVIDYAECSYAMENTKTSDEASSSASFTGPSLYMFKDSIYSTGSSSSGYAATSSIEQCFSKVDHKTQEDTQDFTHMEFIYHDSEFAVEDLQEVLNPVESYILSSARWSVSNQDSKEATTKPTIDQEFEQYFSTLMM
# notes: FHL, which with FHY1 takes part in the nuclear localization of phyA; not shown: GST, N-terminal, kept
# B2: GST/strep-fused FHY1 (far-red elongated hypocotyl 1) (natural protein, UniProt Q8S4Q6 1-202, looked up)
# chain: MPEVEVDNNNEKPSEINSFHHMIISSSKNVLKMEEVEVSKKRKFQTDQSDELSLLPLSKHTCFANVACSENTNGNSEIDTEYSMSSYVNSTTSMECNNDIEMKEESSGSCGEDKMISFESHLDYIYGTQNLEDFSEKVIENILYLDEQEEEEEDAKGCSSNAAKFVLSSGRWTVNQDDSTLHETKKPTIDQEFEQYFSTLML
# notes: FHY1 (far-red elongated hypocotyl 1); not shown: GST, N-terminal, kept
# B3: GST/strep-fused PIF3 (natural protein, UniProt O80536 1-524, looked up)
# chain: MPLFELFRLTKAKLESAQDRNPSPPVDEVVELVWENGQISTQSQSSRSRNIPPPQANSSRAREIGNGSKTTMVDEIPMSVPSLMTGLSQDDDFVPWLNHHPSLDGYCSDFLRDVSSPVTVNEQESDMAVNQTAFPLFQRRKDGNESAPAASSSQYNGFQSHSLYGSDRARDLPSQQTNPDRFTQTQEPLITSNKPSLVNFSHFLRPATFAKTTNNNLHDTKEKSPQSPPNVFQTRVLGAKDSEDKVLNESVASATPKDNQKACLISEDSCRKDQESEKAVVCSSVGSGNSLDGPSESPSLSLKRKHSNIQDIDCHSEDVEEESGDGRKEAGPSRTGLGSKRSRSAEVHNLSERRRRDRINEKMRALQELIPNCNKVDKASMLDEAIEYLKSLQLQVQIMSMASGYYLPPAVMFPPGMGHYPAAAAAMAMGMGMPYAMGLPDLSRGGSSVNHGPQFQVSGMQQQPVAMGIPRVSGGGIFAGSSTIGNGSTRDLSGSKDQTTTNNNSNLKPIKRKQGSSDQFCGSS
# notes: Probably Arabidopsis PIF3, as PIF1 and PIF4 are called Arabidopsis; not shown: GST, N-terminal, kept
# Target: T1, Avena sativa phytochrome A, full-length …
# Assay: pull-down; GST/strep-fused interacting protein (1.0 μg) held on glutathione resin, phytochrome (1.0 μg) in solution, Pr and Pfr forms both tested; 60 min at 4 °C in pull-down buffer (100 mM Tris-HCl pH 7.8, 1 mM EDTA, 150 mM NaCl, 100 μg/ml BSA); western blot with oat22 and anti-GST
# Settings: both partners purified
row,binding result,Binder
1,binds,B1
2,binds,B2
3,binds,B3

# Target: T2, AsphyA T418D, full length
# Assay: as above
# Settings: both partners purified
row,binding result,Binder
1,binds,B1
2,binds,B2
3,binds,B3
